In US20210388110A1 (published 2021):
Positions count from the first letter of the chain named.

Molecular target: T1, soluble human GPC3 (human, UniProt P51654 25-563, limits assumed)
T1 construct: soluble human GPC3 as analyte; also called glypican 3
Experiment: SPR (Biacore), soluble human GPC3

T1 sequence (P51654 other isoform, or with tags, fused parts or gaps limits assumed, form in doubt): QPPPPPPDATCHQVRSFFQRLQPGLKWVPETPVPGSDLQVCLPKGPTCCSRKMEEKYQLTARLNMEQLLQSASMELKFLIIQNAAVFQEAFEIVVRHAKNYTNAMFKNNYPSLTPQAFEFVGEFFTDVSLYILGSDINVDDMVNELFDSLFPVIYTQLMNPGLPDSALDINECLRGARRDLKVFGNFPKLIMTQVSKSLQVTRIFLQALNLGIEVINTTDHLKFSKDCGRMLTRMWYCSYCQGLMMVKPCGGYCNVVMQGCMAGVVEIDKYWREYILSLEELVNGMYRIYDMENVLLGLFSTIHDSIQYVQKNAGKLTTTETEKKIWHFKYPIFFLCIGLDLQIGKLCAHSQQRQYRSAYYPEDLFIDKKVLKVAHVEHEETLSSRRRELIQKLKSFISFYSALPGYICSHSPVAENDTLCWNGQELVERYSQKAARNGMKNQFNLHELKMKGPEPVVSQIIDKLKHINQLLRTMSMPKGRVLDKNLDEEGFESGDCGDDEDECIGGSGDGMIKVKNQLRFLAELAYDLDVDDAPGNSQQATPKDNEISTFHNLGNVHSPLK

B1: H0610-G1dh/none-Hi-Kn010G3/L0011-k0 (antibody, human IgG1, kappa)
heavy: not shown
chain: EPKSSDKTHTCPPCPAPELLGGPSVFLFPPKPKDTLMISRTPEVTCVVVDVSHEDPEVKFNWYVDGVEVHNAKTKPREEQYNSTYRVVSVLTVLHQDWLNGKEYKCKVSNKALPAPIEKTISKAKGQPREPQVCTLPPSRDELTKNQVSLWCLVKGFYPSDIAVEWESNGQPENNYKTTPPVLDSDGSFFLYSKLTVDKSRWQQGNVFSCSVMHEALHNRYTQKSLSLSP
light: DIVMTQSPLSLPVTPGEPASISCRSSQPLVHSNRNTYLHWYQQKPGQAPRLLIYKVSNRFSGVPDRFSGSGSGTDFTLKISRVEAEDVGVYYCGQGTQVPYTFGQGTKLEIKRTVAAPSVFIFPPSDEQLKSGTASVVCLLNNFYPREAKVQWKVDNALQSGNSQESVTEQDSKDSTYSLSSTLTLSKADYEKHKVYACEVTHQGLSSPVTKSFNRGEC
notes: single-arm (one Fab)
B1 was tested, and the Kd was 2.76 nM.

B2: H0610-G1dh/none-Hi-Kn010G3/L0127-k0 (antibody, human IgG1, kappa)
heavy: not shown
chain: B1 chain
light: B1 light with P28S, F60P
notes: single-arm (one Fab)
Binder B2 has a Kd of 3.12 nM.

B3: H0610-G1dh/none-Hi-Kn010G3/L0066-k0 (antibody, human IgG1, kappa)
heavy: not shown
chain: B1 chain
light: B1 light with P28S, N35H
notes: single-arm (one Fab)
B3 gave a Kd of 4.2 nM.

B4: H0610-G1dh/none-Hi-Kn010G3/L0012-k0 (antibody, human IgG1, kappa)
heavy: not shown
chain: B1 chain
light: B1 light with P28S, L29F
notes: single-arm (one Fab)
In the case of B4, the Kd is reported as 1.55 nM.

B5: H0610-G1dh/none-Hi-Kn010G3/L0065-k0 (antibody, human IgG1, kappa)
heavy: not shown
chain: B1 chain
light: B1 light with P28S, N35G
notes: single-arm (one Fab)
Binder B5 has a Kd of 4.79 nM.

B6: H0610-G1dh/none-Hi-Kn010G3/L0161-k0 (antibody, human IgG1, kappa)
heavy: not shown
chain: B1 chain
light: B1 light with P28S, G94V
notes: single-arm (one Fab)
In the case of B6, the Kd is reported as 0.973 nM.

B7: H0610-G1dh/none-Hi-Kn010G3/L0141-k0 (antibody, human IgG1, kappa)
heavy: not shown
chain: B1 chain
light: B1 light with P28S, S61M
notes: single-arm (one Fab)
B7 was tested, and the Kd was 3.86 nM.

B8: H0610-G1dh/none-Hi-Kn010G3/L0155-k0 (antibody, human IgG1, kappa)
heavy: not shown
chain: B1 chain
light: B1 light with P28S, G94L
notes: single-arm (one Fab)
B8 was tested, and the Kd was 1.28 nM.

B9: H0610-G1dh/none-Hi-Kn010G3/L0013-k0 (antibody, human IgG1, kappa)
heavy: not shown
chain: B1 chain
light: B1 light with P28S, L29I
notes: single-arm (one Fab)
Binder B9 has a Kd of 3.35 nM.

B10: H0610-G1dh/none-Hi-Kn010G3/L0160-k0 (antibody, human IgG1, kappa)
heavy: not shown
chain: B1 chain
light: B1 light with P28S, G94T
notes: single-arm (one Fab)
With B10 the Kd was 2.12 nM.

B11: H0610-G1dh/none-Hi-Kn010G3/L0044-k0 (antibody, human IgG1, kappa)
heavy: not shown
chain: B1 chain
light: B1 light with P28S, S32P
notes: single-arm (one Fab)
B11 showed a Kd of 4.57 nM.

B12: H0610-G1dh/none-Hi-Kn010G3/L0085-k0 (antibody, human IgG1, kappa)
heavy: not shown
chain: B1 chain
light: B1 light with P28S, H39E
notes: single-arm (one Fab)
Binder B12 has a Kd of 1.17 nM.

B13: H0610-G1dh/none-Hi-Kn010G3/L0082-k0 (antibody, human IgG1, kappa)
heavy: not shown
chain: B1 chain
light: B1 light with P28S, L38V
notes: single-arm (one Fab)
In the case of B13, the Kd is reported as 3.43 nM.

B14: H0610-G1dh/none-Hi-Kn010G3/L0148-k0 (antibody, human IgG1, kappa)
heavy: not shown
chain: B1 chain
light: B1 light with P28S, S61W
notes: single-arm (one Fab)
B14 showed a Kd of 3.28 nM.

B15: H0610-G1dh/none-Hi-Kn010G3/L0152-k0 (antibody, human IgG1, kappa)
heavy: not shown
chain: B1 chain
light: B1 light with P28S, G94F
notes: single-arm (one Fab)
B15 was tested, and the Kd was 2.36 nM.

B16: H0610-G1dh/none-Hi-Kn010G3/L0038-k0 (antibody, human IgG1, kappa)
heavy: not shown
chain: B1 chain
light: B1 light with P28S, S32F
notes: single-arm (one Fab)
Binder B16 has a Kd of 2.75 nM.

B17: H0610-G1dh/none-Hi-Kn010G3/L0090-k0 (antibody, human IgG1, kappa)
heavy: not shown
chain: B1 chain
light: B1 light with P28S, H39M
notes: single-arm (one Fab)
For B17, the Kd was 1.12 nM.

B18: H0610-G1dh/none-Hi-Kn010G3/L0145-k0 (antibody, human IgG1, kappa)
heavy: not shown
chain: B1 chain
light: B1 light with P28S, S61R
notes: single-arm (one Fab)
Binder B18 has a Kd of 2.66 nM.

B19: H0610-G1dh/none-Hi-Kn010G3/L0115-k0 (antibody, human IgG1, kappa)
heavy: not shown
chain: B1 chain
light: B1 light with P28S, N58W
notes: single-arm (one Fab)
B19 gave a Kd of 4.34 nM.

B20: H0610-G1dh/none-Hi-Kn010G3/L0167-k0 (antibody, human IgG1, kappa)
heavy: not shown
chain: B1 chain
light: B1 light with P28S, G96S
notes: single-arm (one Fab)
For B20, the Kd was 0.211 nM.

B21: H0610-G1dh/none-Hi-Kn010G3/L0140-k0 (antibody, human IgG1, kappa)
heavy: not shown
chain: B1 chain
light: B1 light with P28S, S61L
notes: single-arm (one Fab)
For B21, the Kd was 3.38 nM.

B22: H0610-G1dh/none-Hi-Kn010G3/L0047-k0 (antibody, human IgG1, kappa)
heavy: not shown
chain: B1 chain
light: B1 light with P28S, S32W
notes: single-arm (one Fab)
Binder B22 has a Kd of 2.23 nM.

B23: H0610-G1dh/none-Hi-Kn010G3/L0107-k0 (antibody, human IgG1, kappa)
heavy: not shown
chain: B1 chain
light: B1 light with P28S, N58I
notes: single-arm (one Fab)
B23 showed a Kd of 4.38 nM.

B24: H0610-G1dh/none-Hi-Kn010G3/L0064-k0 (antibody, human IgG1, kappa)
heavy: not shown
chain: B1 chain
light: B1 light with P28S, N35F
notes: single-arm (one Fab)
With B24 the Kd was 3.37 nM.

B25: H0610-G1dh/none-Hi-Kn010G3/L0157-k0 (antibody, human IgG1, kappa)
heavy: not shown
chain: B1 chain
light: B1 light with P28S, G94N
notes: single-arm (one Fab)
Work on B25 yielded a Kd of 2.6 nM.

B26: H0610-G1dh/none-Hi-Kn010G3/L0125-k0 (antibody, human IgG1, kappa)
heavy: not shown
chain: B1 chain
light: B1 light with P28S, F60M
notes: single-arm (one Fab)
In the case of B26, the Kd is reported as 1.71 nM.

B27: H0610-G1dh/none-Hi-Kn010G3/L0143-k0 (antibody, human IgG1, kappa)
heavy: not shown
chain: B1 chain
light: B1 light with P28S, S61P
notes: single-arm (one Fab)
Binder B27 has a Kd of 0.573 nM.

B28: H0610-G1dh/none-Hi-Kn010G3/L0093-k0 (antibody, human IgG1, kappa)
heavy: not shown
chain: B1 chain
light: B1 light with P28S, H39Q
notes: single-arm (one Fab)
In the case of B28, the Kd is reported as 0.106 nM.

B29: H0610-G1dh/none-Hi-Kn010G3/L0079-k0 (antibody, human IgG1, kappa)
heavy: not shown
chain: B1 chain
light: B1 light with P28S, L38I
notes: single-arm (one Fab)
B29 showed a Kd of 4.23 nM.

B30: H0610-G1dh/none-Hi-Kn010G3/L0032-k0 (antibody, human IgG1, kappa)
heavy: not shown
chain: B1 chain
light: B1 light with P28S, H31R
notes: single-arm (one Fab)
B30 showed a Kd of 3.72 nM.

B31: H0610-G1dh/none-Hi-Kn010G3/L0039-k0 (antibody, human IgG1, kappa)
heavy: not shown
chain: B1 chain
light: B1 light with P28S, S32H
notes: single-arm (one Fab)
B31 was tested, and the Kd was 3.41 nM.

B32: H0610-G1dh/none-Hi-Kn010G3/L0014-k0 (antibody, human IgG1, kappa)
heavy: not shown
chain: B1 chain
light: B1 light with P28S, L29M
notes: single-arm (one Fab)
Work on B32 yielded a Kd of 1.82 nM.

B33: H0610-G1dh/none-Hi-Kn010G3/L0122-k0 (antibody, human IgG1, kappa)
heavy: not shown
chain: B1 chain
light: B1 light with P28S, F60I
notes: single-arm (one Fab)
Work on B33 yielded a Kd of 2.42 nM.

B34: H0610-G1dh/none-Hi-Kn010G3/L0016-k0 (antibody, human IgG1, kappa)
heavy: not shown
chain: B1 chain
light: B1 light with P28S, L29V
notes: single-arm (one Fab)
Work on B34 yielded a Kd of 4.44 nM.

B35: H0610-G1dh/none-Hi-Kn010G3/L0015-k0 (antibody, human IgG1, kappa)
heavy: not shown
chain: B1 chain
light: B1 light with P28S, L29P
notes: single-arm (one Fab)
For B35, the Kd was 1.31 nM.

B36: H0610-G1dh/none-Hi-Kn010G3/L0149-k0 (antibody, human IgG1, kappa)
heavy: not shown
chain: B1 chain
light: B1 light with P28S, G94A
notes: single-arm (one Fab)
B36 showed a Kd of 2.16 nM.

B37: H0610-G1dh/none-Hi-Kn010G3/L0045-k0 (antibody, human IgG1, kappa)
heavy: not shown
chain: B1 chain
light: B1 light with P28S, S32Q
notes: single-arm (one Fab)
B37 was tested, and the Kd was 4.66 nM.

B38: H0610-G1dh/none-Hi-Kn010G3/L0042-k0 (antibody, human IgG1, kappa)
heavy: not shown
chain: B1 chain
light: B1 light with P28S, S32M
notes: single-arm (one Fab)
In the case of B38, the Kd is reported as 4.27 nM.

B39: H0610-G1dh/none-Hi-Kn010G3/L0075-k0 (antibody, human IgG1, kappa)
heavy: not shown
chain: B1 chain
light: B1 light with P28S, N35W
notes: single-arm (one Fab)
B39 gave a Kd of 2.85 nM.

B40: H0610-G1dh/none-Hi-Kn010G3/L0134-k0 (antibody, human IgG1, kappa)
heavy: not shown
chain: B1 chain
light: B1 light with P28S, F60Y
notes: single-arm (one Fab)
B40 showed a Kd of 2.53 nM.

B41: H0610-G1dh/none-Hi-Kn010G3/L0129-k0 (antibody, human IgG1, kappa)
heavy: not shown
chain: B1 chain
light: B1 light with P28S, F60R
notes: single-arm (one Fab)
B41 gave a Kd of 4.54 nM.

B42: H0610-G1dh/none-Hi-Kn010G3/L0151-k0 (antibody, human IgG1, kappa)
heavy: not shown
chain: B1 chain
light: B1 light with P28S, G94E
notes: single-arm (one Fab)
B42 was tested, and the Kd was 1.25 nM.

B43: H0610-G1dh/none-Hi-Kn010G3/L0041-k0 (antibody, human IgG1, kappa)
heavy: not shown
chain: B1 chain
light: B1 light with P28S, S32L
notes: single-arm (one Fab)
B43 showed a Kd of 4.85 nM.

B44: H0610-G1dh/none-Hi-Kn010G3/L0168-k0 (antibody, human IgG1, kappa)
heavy: not shown
chain: B1 chain
light: B1 light with P28S, G96T
notes: single-arm (one Fab)
B44 was tested, and the Kd was 0.699 nM.

B45: H0610-G1dh/none-Hi-Kn010G3/L0154-k0 (antibody, human IgG1, kappa)
heavy: not shown
chain: B1 chain
light: B1 light with P28S, G94I
notes: single-arm (one Fab)
Binder B45 has a Kd of 1.01 nM.

B46: H0610-G1dh/none-Hi-Kn010G3/L0163-k0 (antibody, human IgG1, kappa)
heavy: not shown
chain: B1 chain
light: B1 light with P28S, G94Y
notes: single-arm (one Fab)
Work on B46 yielded a Kd of 3.38 nM.

B47: H0610-G1dh/none-Hi-Kn010G3/L0124-k0 (antibody, human IgG1, kappa)
heavy: not shown
chain: B1 chain
light: B1 light with P28S, F60L
notes: single-arm (one Fab)
B47 gave a Kd of 0.972 nM.
